Data from the DeepSol protein solubility set.

Test: soluble on expression in E. coli; label from the status in PepcDB or PDB records

| Sequence | soluble on expression in E. coli |
| --- | --- |
| METSMRYTSNSKSMKIHAKEKVPVNSKTHLQLHGELDTGTGAPSYFCAMIRHFFPEASTGLGVGLHYDKRQKLRCLVRGKKEFPVRADKRVTFNIKGRCDIDQDLNQKNPKGAAEFAWNIMDFKEDQDVRIKVGYEMFDKVPYMQIRENNWTLNANMKGKWNLRYDL | not soluble |
| SVRVMQLTLGNSTITTQEAANSVVAYGRWPEYIKDSEANPVDQPTEPDVAACRFYTLDTVTWRKESRGWWWKLPDALKDMGLFGQNMFYHYLGRAGYTVHVQCNASKFHQGALGVFAVPEMCLAGDSTTHMFTKYENANPGEKGGEFKGSFTLDTNATNPARNFCPVDYLFGSGVLAGNAFVYPHQIINLRTNNCATLVLPYVNSLSIDSMTKHNNWGIAILPLAPLDFATESSTEIPITLTIAPMCCEFNGLRNITVPRTQ | soluble |
| MGSSHHHHHHDYDIPTTENLYFQGHMKVKILVDSTADVPFSWMEKYDIDSIPLYVVWEDGRSEPDEREPEEIMNFYKRIREAGSVPKTSQPSVEDFKKRYLKYKEEDYDVVLVLTLSSKLSGTYNSAVLASKEVDIPVYVVDTLLASGAIPLPARVAREMLENGATIEEVLKKLDERMKNKDFKAIFYVSNFDYLVKGGRVSKFQGFVGNLLKIRVCLHIENGELIPYRKVRGDKKAIEALIEKLREDTPEGSKLRVIGVHADNEAGVVELLNTLRKSYEVVDEIISPMGKVITTHVGPGTVGFGIEVLERKR | soluble |
| MAEHECVQLVPIFSELGSEQLDIIESIVRHHHYPAGSTLFGADDPLDSLMIVANGQVKVYQLAANGREQLLYLLQTGDIDGEAALFENQRRTSFGEALVPTDVCSIRRSDFQDLMQKYPSISINVLNVFGKRLNQLERQTTSTATESVEARLANYITETAAALKTDTFKLPLKKKDLATFLGTTPESISRKLALFERQGLITQKPGKVIEINDADQLLLTE | soluble |
| MTNSIRIGTRKSPLALIHTNLVIQQIKQFFPDINCEIVPIITSGDLIQNKPLYDIGGKALFLKEIEQALLDKKIDLAVHSLKDVPGRMPEPLVIAAVLEREDPRDVFVCLKYKSIEELPQNAVIGSSAVRRKAFIQKIRPDLKVTVFRGNVDSRIKKLMTGEVDATILAYTGLKRLEVFNPEYCHLIEYSQMLPCIGQGVIAVEIRKDDNAMLEICNQINHLPTFELIKPERAFLEYLDANCRTPIAAYSQYLDANPRHLSKLAYREVLEGNTEALATAAYKSNRTDASTGLTYKLPLEVEFGKVSNIQTNFMLGNLDGSKITFHTETTNIKTSTEAGIKAAKMMLEAICK | soluble |
| SLQPYEKYLKLNSQKLRADQTDTERKLWQRINRDQLLGFRFNRQKPLLSYIVDFYCAKTKLIIELDGSQHYKPDYQEKDALRDAELNSLGFTVMRFSNDEVMREIEAVVEQIYLFLENVRTD | not soluble |
| MGSDKIHHHHHHMPKRPVRKPGVFARLEDLYTRMETAYNATAAAAGLTCTGCDDNCCRTHFRHHTRIEWAYLWKGMLSLSPERREAYLERAKDVVAQCDAALAAGVVPRVMCPLNDEGRCGLYKYRLMICRMHGTRNILRLPDGRTQVFRGCHRFDNCTAQFADADRPSLDRTPLYTELAKLEMEHLGPTAARQQRVDLTLAEMLVYGPPKP | not soluble |
| MAHHHHHHMSHPKMKLVRRARKSIRERRMKACLKDLSSNLEKVEMRVFRQQKQKRQQQQRKGAGNHITVPPDVLRGVMNPELYHIECRLHQEACMPPPPPYEGYSQRERCDGARRRIGFVEFVTIAEMVRLGAMPGTPARVGI | not soluble |
| MNSCWAKGKLMCEGRPASGVKVKLMESDNSFLPGFLDRDDKMASGKADSNGEFNLSGSTKEITGIEPYLAVFHDCKDGITPCQRVLRINIPKSYANWGSSAEKTFNAGNLELAGKFPGETRSCFN | not soluble |
| MSLHLSNVILHQLCKNDQDELVVKLRPASLENDASTENLVAELHRVFHSKAGKGFGSFQSDSEFQFWLQEMRKGERDFYDFSQISANRLKEELIKYPFADEGILVFAEYQSLATDYLFIGILPMNQSLKVTEGLDISATDYLDITKMDIAARIDLSSYETDKESNRYLQYIKGRVGRKVADFFLDFLQADIGLDTKQQNLVLMQAVDDFCADSKLEKQEVNEYKKQVYNYCNEQIKSGEEVQISELSGELPPSQDGTSFMDFTKEQGYELEESFPGDRSTVRKLTKYVGAGGGLNISFDSLLLGERIFYDPETDTLTIKGTPPNLKDQLSRNLEHHHHHH | soluble |
| MKRAFIMVLDSFGIGATEDAERFGDVGADTLGHIAEACAKGEADNGRKGPLNLPNLTRLGLAKAHEGSTGFIPAGMDGNAEVIGAYAWAHEMSSGKDTPSGHWEIAGVPVLFEWGYFSDHENSFPQELLDKLVERANLPGYLGNCHSSGTVILDQLGEEHMKTGKPIFYTSADSVFQIACHEETFGLDKLYELCEIAREELTNGGYNIGRVIARPFIGDKAGNFQRTGNRHDLAVEPPAPTVLQKLVDEKHGQVVSVGKIADIYANCGITKKVKATGLDALFDATIKEMKEAGDNTIVFTNFVDFDSSWGHRRDVAGYAAGLELFDRRLPELMSLLRDDDILILTADHGCDPTWTGTDHTREHIPVLVYGPKVKPGSLGHRETFADIGQTLAKYFGTSDMEYGKAMF | not soluble |
| MGSDKIHHHHHHMYIGCNWSKALKFLLEKDEVKIDYIKAGAYGDFENEFSTMRSMKPILIHGLGKFERTGMKDINLVDFDRANSIIKRCSSPHFGIHLEIKNSDMYEGMRDENIYEYMCKQIQTFKKNIEVPLLLENVPDSPIEHTVFDCYPYFQPKKLTKLFLDNNVDFLLDLTHAKITSKYHKIDVHEYLNGLPLERVREIHVNGSGYDEEGFPMDTHSSMEKEDYDLLRWVLTYSKPYVVTLEYAGTKKEKEADIIASLKTQLREIQNIIISR | not soluble |
| MRQALPLVTRQGDRIAIVSGLRTPFARQATAFHGIPAVDLGKMVVGELLARSEIPADAIEQLVFGQVVQMPEAPNIAREIVLGTGMNVHTDAYSVSRACATSFQAVANVAESLMAGTIRAGIAGGADSSSVLPIGVSKALARVLVDVNKARTTRQRLTLFSRLRLRDLLPVPPAVAEYSTGLRMGDTAEQMAKTYGITREQQDALAHRSHQRAAQAWAEGKLAEEVMTTYVPPYKNPFAEDNNIRGASTLADYAKLRPAFDRKHGSVTAANSTPLTDGAAAVILMTESRAKELGLRPLGYLRTYAFTAIDVWQDMLLGPAWSTPLALERAGLTMADLTLFDMHEAFAAQTLANLQLLGSERFAREVLGCAQATGEVDDAKFNVLGGSIAYGHPFAATGARMITQTLHELRRRGGGFGLVTACAAGGLGAAMVLEAE | not soluble |
| MLFIAFAPFGAFALEANSKNDGYSLDDIKYYKIFENEDIPKIMYALRQGDFEIIAELKNEWEIEEEDVSFEYTTSKNPLGELIRDNLYELGQKYEVFEDESDFVSKMNVWATAFTKSMMKKSSEQKDKLIVQTVNALDNLDETLNLFSERLREWYSLYFPEMDNIVKKHDIYVSLVSEYGDREEYTRTKLKKTMPSNVARTISLAAKESMGADVSEFDLKIMKNLADEIKSMYEYRESLQEYLETSMNEIAPNLTKVAGASLGARLISLAGGIERLLRLPASTIQVIGAEKALFAHLRERALPPKHGVIFQHPLIQGSPWWIHGKIARAISCKISIAIRADAFGNDISDMLIEDMNKKVAEIKEKFPEPTRKRRPRPDTRSFGNKGGQDRDRRSQGDRKPSGNRGDSKKGGKPFGKKPAGKDDRRDNRKGDRKPFGGKPKNSGNQPPKERSGEKRRDSTKKVKAERKVIGKTSSQNLEHHHHHH | soluble |
| MISAFDIFKIGIGPSSSHTVGPMNAGKCFIDRLIDSGDLPRTTRITVDLYGSLSLTGKGHATDTAVIMGLAGNTPQDVNIDSIPAFIQEVARSSRLSVAGGAHVVDFPVADSIFFHAETLARHENGMRITAWNGQAPLLHKTYYSIGGGFIVEEERFGQSHDVEKSVPYDFHSASELLTLCERQGLSVSGLMMQNELALRSKEQIDAGFARIWQVMATGIERGMNTEGVLPGPLNVPRRAVALRRLLVSSDNLSRDPMNVIDWINMFALAVSEENAAGGRVVTAPTNGACGIIPAVLAYYDKFRRPVNANSIARYLLSAGAIGMLYKMNASISGAEVGCQGEVGVACSMAAAGLTELLGGSPAQVCIAAEIAMEHNLGLTCDPVAGQVQIPCIERNAINAVKAVNAARMALRRTSEPRVSLDKVIETMYETGKDMNDKYRETSRGGLAIKVVCG | not soluble |
| MLGGSLYQVYAIKEAVKMGYYVITCDYLPNNPGHQYAHEYYNVSTTDKEAVYELAKRLQVDGVVAYASDPAAPTAAYVCEKLGLPTSPYTSVEILSQKDLFRRYLAEHNFNVPKYVGCSSYTEALEQIKNLTLPVMIKPVDSSGSKGINKLTNVDQLKDFIEDALSYSREKRIIIEEFIEKDGYQISGDAFSVDGILKFHCFGNEYYSSSVVKDFAPLGECWPFQMKPEIITELEKDIQRLISELKMGTTAYNVEAILGKNGKLYILELGARSGGSLIPQITELATGVNMVKYVIKAALGEDCSEIEMSPARGYWSNYMLHSKQTGRFKEISFDENFAKNNLVDCVTELKSGDNVHAFRDAGDALGTLILKYSSKEEMFNVIENMDQFVHIIID | not soluble |
| MGSDKIHHHHHHMNFGYWYYREYFNTIKLNSEGIVTNFSTFNKGKNDKLIKGATLPPCDKENDIKDVTGFELKTCYPGLLCGVGYHHEINKPADEKGKKVEGDKEDDAPEVYNLGMYFDYTSGLPVIPGSSIKGMLRSAIEEWDFLADYELNNGVTREEIIEKVFVGKEYSIYDRDIFLDAIPIRVDNTLFGEDYITHHPNPLQNPNPVRFLRVEPGVTYQFRFILKDHGEKLTVDFRTKLFKAIICTFGLGAKTNVGYGQFVEP | not soluble |
| ALAQKRDNVLFQAATDEQPAVIKTLEKLVNIETGTGDAEGIAAAGNFLEAELKNLGFTVTRSKSAGLVVGDNIVGKIKGRGGKNLLLMSHMDTVYLKGILAKAPFRVEGDKAYGPGIADDKGGNAVILHTLKLLKEYGVRDYGTITVLFNTDEEKGSFGSRDLIQEEAKLADYVLSFEPTSAGDEKLSLGTSGIAYVQVNITGKASHAGAAPELGVNALVEASDLVLRTMNIDDKAKNLRFNWTIAKAGNVSNIIPASATLNADVRYARNEDFDAAMKTLEERAQQKKLPEADVKVIVTRGRPAFNAGEGGKKLVDKAVAYYKEAGGTLGVEERTGGGTDAAYAALSGKPVIESLGLPGFGYHSDKAEYVDISAIPRRLYMAARLIMDLGAGK | soluble |
| MVAYSPIIATYGNRAEQFLETDSDFAKYHAKLNKKLQHLRSRCHLVTKDTKKYSSKNKYGEINSEDYDNKTKLIGVLILLHAERDLALAETLKLRARQRGKLKKSEEKVLSTRLKKACKTADKLVNVTQNEQQWITRAQYLAFAKLVHSEYLINGKRFKRKDNAKISNNLALVFAALEHLKNLSLLAEEVVDNIVNKYQYSLKQYAGNLITTPEINNFIVERVQSDENKDDELVKLLLDNGFNMKKITTSTEDQKVTTNINWRSFNAKIIDAEVAQFLEQGLSIHPTQITQYTQRLSKLEKALDRHEFFIANHDDQDDIDEMVENSSENNQIILAYIKYNILLTSISRERDLFTHLWNQWLKLNTSLPSKLTKYKEMERIVKNLTKYLSDIMELPGVYSDDELLSQLDLCKLYFQLFLNTGCLSVLYQSKGRYMEALALYVDAYRRLENKLSEIESLDEILLPANLLSLNSVRSLQKRIENGGNSVITLAEYEKRNHGGSLGKYDLTVIEKLDSKKILPTDIQLKNLFPLKPKMLPIPSKPTLFDLAFNYITYDKQEPSASQVKDSVTETESISQTPISNEQTEGEPKKKRGFLGLFGR | not soluble |
| NNPVSETITRKHVDKDQIRAFGVVAEDNAQLEKGSLVMMGGKYWFVVNPEDSAKLTGILKAGLDKPFQIVEDTPSYARHQALPVKLESPGSQNFSTEGLCLRYDTDKPADIAKLKQLGFEAVKLDNRTIYTRCVSAKGKYYATPQKLNADYHFEQSVPADIYYTVTEEHTDKSKLFANILYTPP | not soluble |
